Read-outs that look alike come from different tables or passages of the source.
T1: cynomolgus IL-15+IL-15Ralpha complex (Macaca fascicularis)
T1 chain 1: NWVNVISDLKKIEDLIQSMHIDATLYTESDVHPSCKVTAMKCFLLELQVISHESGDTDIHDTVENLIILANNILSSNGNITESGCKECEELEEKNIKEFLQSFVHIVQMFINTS
T1 chain 2: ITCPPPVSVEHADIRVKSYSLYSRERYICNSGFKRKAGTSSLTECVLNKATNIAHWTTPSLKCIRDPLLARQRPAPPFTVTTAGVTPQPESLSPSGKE


Key:
Assay in all cases: SPR
[1] = molecular target: human IL-15+IL-15Ralpha complex (human)
[2] = molecular target: human IL-15+IL-15Ralpha complex (human); remark: listed apart in the source
[3] = molecular target: T1, cynomolgus IL-15+IL-15Ralpha complex
[4] = molecular target: human IL-15+IL-15Ralpha complex (human); remark: listed apart in the source
[5] = molecular target: human IL-15+IL-15Ralpha complex (human); remark: listed apart in the source

| Binder | Kd [1] | Kd [2] | Kd [3] | Kd [4] | Kd [5] |
| --- | --- | --- | --- | --- | --- |
| R1A3 (antibody, V domains shown) VH: EVQLVQSGAEVKKPGESLKISCKVSGYFFTTYWIGWVRQMPGKGLEYMGIIYPGDSDTRYSPSFQGQVTISADKSISTAYLQWSSLKASDTAMYYCARGGHWNAFDFWGQGTLVTVSS VL: EIVLTQSPGTLSLSPGERATLSCRASQSVSSSYLAWYQQKPGQAPRLLIYGASRRATGIPDRFSGSGSGTDFTLTISRLEPEDFAVYYCQQFDASQTFGQGTKLEIS | 0.353 nM | – | – | – | – |
| CALY-002 (antibody, V domains shown) VH: EVQLVESGGGLVQPGGSLRLSCAASEFTFSNYAMSWVRQAPGKGLEWVATISRGGDYTYYPDSVKGRFTISRDNSKNTLYLQMNSLRAEDTAVYYCARRVSMITGGWAMDYWGQGTLVTVSS VL: DVVMTQSPLSLPVTLGQPASISCRSSQSIVDITGNTYLEWYQQRPGQSPRLLIYKVFNRFSGVPDRFSGSGSGTDFTLKISRVEAEDVGVYYCFQDSFVPYTFGQGTKLEIK | – | 0.337 nM | 0.148 nM | 0.239 nM | 0.201 nM |

Source: US20260285966 (published 2026)
